The record followed here is PMC11275766 (bioRxiv, 2024).

The test concerns the target ancestral SARS-CoV-2 RBD (recombinant, ELISA antigen) (SARS-CoV-2 ancestral (Wuhan-Hu-1/WA.1), UniProt P0DTC2). In words: ELISA.

B1: M2 mAb (human IgG1) (antibody, V domains shown)
VH: QLQESGPGLVKPSEILSLTCSVSGGSINTNMYYWGWIRQPPGKGLEWIGSIYYSGTTYYNPSLKSRVTMSVDTSENQFSLKLTSVTAADTSVYFCARLPLGERIDYWGRGTLVTVSS
VL: SSDLTQPPSVSVSPGQTASITCSGNKLGDTYVFWYQQKPGQSPVAVINEDNKRPSGIPERFSGSNSGNTATLTISGTQTMDEADYYCQVWDSSQMVFGGGTKLTVL
As to B1, the binding result was “no binding (tested: 30 μg/mL)”.
